Laboratory results from patent US20180355338A1.

Key:
[1] = target: TY-145 protease variant S27K, K146P, S148R, A151R, S171N, S173P, G174R, S175P, F180Y, Q198E, N199K, T297P (Bacillus sp. TY-145); assay: Ki fitted from Suc-AAPF-pNA activity; Model B detergent; ratio against m5 (without A151R)
[2] = target: TY-145 protease variant S173P, S175P, F180Y, L184F (Bacillus sp. TY-145); assay: Ki fitted from Suc-AAPF-pNA activity; Model B detergent; ratio against m3 (without L184F); second row of the same variant
[3] = target: TY-145 protease (mature, SEQ ID NO: 3) (Bacillus sp. TY-145); assay: Ki fitted from Suc-AAPF-pNA activity; Model B detergent; the reference itself (TY145 backbone)
[4] = target: TY-145 protease variant K146T, S173P, S175P, F180Y (Bacillus sp. TY-145); assay: Ki fitted from Suc-AAPF-pNA activity; Tris buffer pH 8; ratio against m3 (without K146T)
[5] = target: TY-145 protease variant S173P, S175P, I178Y, F180Y (Bacillus sp. TY-145); assay: Ki fitted from Suc-AAPF-pNA activity; Model B detergent; ratio against m3 (without I178Y)
[6] = target: TY-145 protease variant S27K, S171N, S173P, G174R, S175P, F180Y, L184F, Q198E, T297P (Bacillus sp. TY-145); assay: Ki fitted from Suc-AAPF-pNA activity; Model B detergent; ratio against m4 (without L184F)
[7] = target: TY-145 protease variant S27K, I121V, S171N, S173P, G174R, S175P, F180Y, Q198E, R224S, T297P (Bacillus sp. TY-145); assay: Ki fitted from Suc-AAPF-pNA activity; Model B detergent; ratio against m6 (without R224S)
[8] = target: TY-145 protease variant S27K, S171N, S173P, G174R, S175P, F180Y, L184W, Q198E, T297P (Bacillus sp. TY-145); assay: Ki fitted from Suc-AAPF-pNA activity; Model B detergent; ratio against m4 (without L184W)
[9] = target: TY-145 protease variant S173P, S175P, F180Y, L184F (Bacillus sp. TY-145); assay: Ki fitted from Suc-AAPF-pNA activity; Model B detergent; ratio against m3 (without L184F)
[10] = target: TY-145 protease variant S114Q, S173P, S175P, F180Y (Bacillus sp. TY-145); assay: Ki fitted from Suc-AAPF-pNA activity; Tris buffer pH 8; ratio against m3 (without S114Q)
[11] = target: TY-145 protease variant S173P, S175P, F180Y, R224D (Bacillus sp. TY-145); assay: Ki fitted from Suc-AAPF-pNA activity; Model B detergent; ratio against m3 (without R224D)
[12] = target: TY-145 protease variant I150N, S173P, S175P, F180Y (Bacillus sp. TY-145); assay: Ki fitted from Suc-AAPF-pNA activity; Model B detergent; ratio against m3 (without I150N)
[13] = target: TY-145 protease variant S27K, Q70N, G107N, I121V, E127Q, S173P, S175P, F180Y, L184F, Q198E, T297P (Bacillus sp. TY-145); assay: Ki fitted from Suc-AAPF-pNA activity; Model B detergent; ratio against m7 (without L184F)
[14] = target: TY-145 protease variant S27K, S171D, S173P, G174R, S175P, G182A, L184F, Q198E, N199K, R224G, T297P (Bacillus sp. TY-145); assay: Ki fitted from Suc-AAPF-pNA activity; Model B detergent; ratio against m12 (without R224G)
[15] = target: TY-145 protease variant K146N, S173P, S175P, F180Y (Bacillus sp. TY-145); assay: Ki fitted from Suc-AAPF-pNA activity; Tris buffer pH 8; ratio against m3 (without K146N)
[16] = target: TY-145 protease variant K146A, S173P, S175P, F180Y (Bacillus sp. TY-145); assay: Ki fitted from Suc-AAPF-pNA activity; Model B detergent; ratio against m3 (without K146A)
[17] = target: TY-145 protease variant K146F, S173P, S175P, F180Y (Bacillus sp. TY-145); assay: Ki fitted from Suc-AAPF-pNA activity; Tris buffer pH 8; ratio against m3 (without K146F)
[18] = target: TY-145 protease variant S173P, S175P, F180Y, R224S (Bacillus sp. TY-145); assay: Ki fitted from Suc-AAPF-pNA activity; Model B detergent; ratio against m3 (without R224S)
[19] = target: TY-145 protease variant S27K, I121V, S171N, S173P, G174R, S175P, F180Y, L184F, Q198E, T297P (Bacillus sp. TY-145); assay: Ki fitted from Suc-AAPF-pNA activity; Model B detergent; ratio against m6 (without L184F)
[20] = target: TY-145 protease variant S111R (Bacillus sp. TY-145); assay: Ki fitted from Suc-AAPF-pNA activity; Model B detergent; relative to TY145 backbone
[21] = target: TY-145 protease variant Q70A (Bacillus sp. TY-145); assay: as above
[22] = target: TY-145 protease variant R224G (Bacillus sp. TY-145); assay: as above
[23] = target: TY-145 protease variant L184Y (Bacillus sp. TY-145); assay: as above
[24] = target: TY-145 protease variant S114A (Bacillus sp. TY-145); assay: as above
[25] = target: TY-145 protease variant I150N, S173P, S175P, F180Y (Bacillus sp. TY-145); assay: Ki fitted from Suc-AAPF-pNA activity; Tris buffer pH 8; ratio against m3 (without I150N)

**Q.** With “Z-Gly-Ala-NHCH(CH2C6H4pOH)C(OH)(SO3Na)-H, wherein Z is benzyloxycarbonyl (peptide)” as the substance, how does the relative Ki mutation [1] read?
**A.** The relative Ki mutation was 0.75.

**Q.** What about the relative Ki mutation [2] of the same substance?
**A.** The relative Ki mutation was 0.27.

**Q.** What about the IF (binding constant improvement factor, relative Ki) [3] of the same substance?
**A.** The IF (binding constant improvement factor, relative Ki) was 1.

**Q.** What about the relative Ki mutation [4] of the same substance?
**A.** Its relative Ki mutation is 0.06.

**Q.** What about the relative Ki mutation [5] of the same substance?
**A.** Its relative Ki mutation is 0.53.

**Q.** And the relative Ki mutation [6]?
**A.** The relative Ki mutation was 0.18.

**Q.** What about the relative Ki mutation [7] of the same substance?
**A.** The relative Ki mutation was 0.56.

**Q.** What about the relative Ki mutation [8] of the same substance?
**A.** Its relative Ki mutation is 0.57.

**Q.** And the relative Ki mutation [9]?
**A.** The relative Ki mutation was 0.31.

**Q.** What about the relative Ki mutation [10] of the same substance?
**A.** The relative Ki mutation was 0.34.

**Q.** What about the relative Ki mutation [11] of the same substance?
**A.** The relative Ki mutation was 0.36.

**Q.** And the relative Ki mutation [12]?
**A.** The relative Ki mutation was 0.35.

**Q.** And the relative Ki mutation [13]?
**A.** The relative Ki mutation was 0.37.

**Q.** And the relative Ki mutation [14]?
**A.** Its relative Ki mutation is 0.49.

**Q.** And the relative Ki mutation [15]?
**A.** The relative Ki mutation was 0.91.

**Q.** And the relative Ki mutation [16]?
**A.** Its relative Ki mutation is 0.34.

**Q.** And the relative Ki mutation [17]?
**A.** Its relative Ki mutation is 0.19.

**Q.** And the relative Ki mutation [18]?
**A.** Its relative Ki mutation is 0.5.

**Q.** What about the relative Ki mutation [19] of the same substance?
**A.** Its relative Ki mutation is 0.3.

**Q.** What about the IF (binding constant improvement factor, relative Ki) [20] of the same substance?
**A.** Its IF (binding constant improvement factor, relative Ki) is 0.9.

**Q.** What about the IF (binding constant improvement factor, relative Ki) [21] of the same substance?
**A.** The IF (binding constant improvement factor, relative Ki) was 0.39.

**Q.** What about the IF (binding constant improvement factor, relative Ki) [22] of the same substance?
**A.** The IF (binding constant improvement factor, relative Ki) was 0.6.

**Q.** And the IF (binding constant improvement factor, relative Ki) [23]?
**A.** Its IF (binding constant improvement factor, relative Ki) is 0.22.

**Q.** What about the IF (binding constant improvement factor, relative Ki) [24] of the same substance?
**A.** The IF (binding constant improvement factor, relative Ki) was 0.47.

**Q.** And the relative Ki mutation [25]?
**A.** Its relative Ki mutation is 0.21.
